Experimental findings from article PMC7190626 are described below.

Series [1] in a line: confocal colocalisation with ER stain CytoPainter. To be noted: glycan lost; control: WT SNAP-α1D.
The nature of series [2]: sucrose density gradient fractionation, PAGE NIR. To be noted: glycan lost; control: WT SNAP-α1D.
Series [3] can be described thus: cell-impermeable SNAP substrate BG-782 surface labelling. To be noted: glycan lost; control: WT SNAP-α1D.
Series [4] in a line: PAGE NIR of SNAP-labelled HEK293 lysate. Particulars: glycan lost; control: WT SNAP-α1D.
Series [5] is described as follows: SNAP-Capture pull-down, MS/MS peptide coverage. Particulars: glycan lost; control: WT SNAP-α1D.
Series [6] can be described thus: dual SNAP/CLIP tag PAGE NIR. To be noted: glycan lost; control: S-WT-C.
The nature of series [7]: PAGE NIR after 16 hr tunicamycin. To be noted: glycan lost; control: EtOH vehicle.

B1: α1D-adrenergic receptor (α1D-AR): N65Q (protein)
parent chain: MTFRDLLSVSFEGPRPDSSAGGSSAGGGGGSAGGAAPSEGPAVGGVPGGAGGGGGVVGAGSGEDNRSSAGEPGSAGAGGDVNGTAAVGGLVVSAQGVGVGVFLAAFILMAVAGNLLVILSVACNRHLQTVTNYFIVNLAVADLLLSATVLPFSATMEVLGFWAFGRAFCDVWAAVDVLCCTASILSLCTISVDRYVGVRHSLKYPAIMTERKAAAILALLWVVALVVSVGPLLGWKEPVPPDERFCGITEEAGYAVFSSVCSFYLPMAVIVVMYCRVYVVARSTTRSLEAGVKRERGKASEVVLRIHCRGAATGADGAHGMRSAKGHTFRSSLSVRLLKFSREKKAAKTLAIVVGVFVLCWFPFFFVLPLGSLFPQLKPSEGVFKVIFWLGYFNSCVNPLIYPCSSREFKRAFLRLLRCQCRRRRRRRPLWRVYGHHWRASTSGLRQDCAPSSGDAPPGAPLALTALPDPDPEPPGTPEMQAPVASRRKPPSAFREWRLLGPFRRPTTQLRAKVSSLSHKIRAGGAQRAEAACAQRSEVEAVSLGVPHEVAEGATCQAYELADYSNLRETDI
Take B1: the “localisation_or_trafficking, other: Pearson's coefficient” value in series [1] is “no change, 0.70 ± 0.04 vs 0.72 ± 0.03”. In series [2], the “localisation_or_trafficking, other: % total AUC in low-density (ER) peak” value is “changes, 46.33 vs 92.47”. For the same protein, the “localisation_or_trafficking, other: % change from SNAP alone” value in series [3] is given as “decreases, 13.40 ± 4.65 vs 46.13 ± 5.61”. Moreover, in series [4], the “other: full-length receptor biogenesis” value is given as “no change”.

B2: α1D-adrenergic receptor (α1D-AR): N82Q (protein)
parent chain: MTFRDLLSVSFEGPRPDSSAGGSSAGGGGGSAGGAAPSEGPAVGGVPGGAGGGGGVVGAGSGEDNRSSAGEPGSAGAGGDVNGTAAVGGLVVSAQGVGVGVFLAAFILMAVAGNLLVILSVACNRHLQTVTNYFIVNLAVADLLLSATVLPFSATMEVLGFWAFGRAFCDVWAAVDVLCCTASILSLCTISVDRYVGVRHSLKYPAIMTERKAAAILALLWVVALVVSVGPLLGWKEPVPPDERFCGITEEAGYAVFSSVCSFYLPMAVIVVMYCRVYVVARSTTRSLEAGVKRERGKASEVVLRIHCRGAATGADGAHGMRSAKGHTFRSSLSVRLLKFSREKKAAKTLAIVVGVFVLCWFPFFFVLPLGSLFPQLKPSEGVFKVIFWLGYFNSCVNPLIYPCSSREFKRAFLRLLRCQCRRRRRRRPLWRVYGHHWRASTSGLRQDCAPSSGDAPPGAPLALTALPDPDPEPPGTPEMQAPVASRRKPPSAFREWRLLGPFRRPTTQLRAKVSSLSHKIRAGGAQRAEAACAQRSEVEAVSLGVPHEVAEGATCQAYELADYSNLRETDI
For B2, the “localisation_or_trafficking, other: % total AUC in low-density (ER) peak” value in series [2] is “no change, 89.13 vs 92.47”. Further, the “localisation_or_trafficking, other: % change from SNAP alone” value in series [3] was “decreases, 9.49 ± 5.95 vs 46.13 ± 5.61”. Besides, the “other: full-length receptor biogenesis” value in series [4] is “no change”.

B3: α1D-adrenergic receptor (α1D-AR): NQQ (protein)
parent chain: MTFRDLLSVSFEGPRPDSSAGGSSAGGGGGSAGGAAPSEGPAVGGVPGGAGGGGGVVGAGSGEDNRSSAGEPGSAGAGGDVNGTAAVGGLVVSAQGVGVGVFLAAFILMAVAGNLLVILSVACNRHLQTVTNYFIVNLAVADLLLSATVLPFSATMEVLGFWAFGRAFCDVWAAVDVLCCTASILSLCTISVDRYVGVRHSLKYPAIMTERKAAAILALLWVVALVVSVGPLLGWKEPVPPDERFCGITEEAGYAVFSSVCSFYLPMAVIVVMYCRVYVVARSTTRSLEAGVKRERGKASEVVLRIHCRGAATGADGAHGMRSAKGHTFRSSLSVRLLKFSREKKAAKTLAIVVGVFVLCWFPFFFVLPLGSLFPQLKPSEGVFKVIFWLGYFNSCVNPLIYPCSSREFKRAFLRLLRCQCRRRRRRRPLWRVYGHHWRASTSGLRQDCAPSSGDAPPGAPLALTALPDPDPEPPGTPEMQAPVASRRKPPSAFREWRLLGPFRRPTTQLRAKVSSLSHKIRAGGAQRAEAACAQRSEVEAVSLGVPHEVAEGATCQAYELADYSNLRETDI
For the protein B3, the “other: full-length receptor biogenesis” value was “abolishes” in series [5] and “abolishes, primarily expressed as a single, robust band of ~43 kDa in size” in series [4].

B4: α1D-adrenergic receptor (α1D-AR): S-NQQ-C (protein)
parent chain: MTFRDLLSVSFEGPRPDSSAGGSSAGGGGGSAGGAAPSEGPAVGGVPGGAGGGGGVVGAGSGEDNRSSAGEPGSAGAGGDVNGTAAVGGLVVSAQGVGVGVFLAAFILMAVAGNLLVILSVACNRHLQTVTNYFIVNLAVADLLLSATVLPFSATMEVLGFWAFGRAFCDVWAAVDVLCCTASILSLCTISVDRYVGVRHSLKYPAIMTERKAAAILALLWVVALVVSVGPLLGWKEPVPPDERFCGITEEAGYAVFSSVCSFYLPMAVIVVMYCRVYVVARSTTRSLEAGVKRERGKASEVVLRIHCRGAATGADGAHGMRSAKGHTFRSSLSVRLLKFSREKKAAKTLAIVVGVFVLCWFPFFFVLPLGSLFPQLKPSEGVFKVIFWLGYFNSCVNPLIYPCSSREFKRAFLRLLRCQCRRRRRRRPLWRVYGHHWRASTSGLRQDCAPSSGDAPPGAPLALTALPDPDPEPPGTPEMQAPVASRRKPPSAFREWRLLGPFRRPTTQLRAKVSSLSHKIRAGGAQRAEAACAQRSEVEAVSLGVPHEVAEGATCQAYELADYSNLRETDI
In the case of B4, the “other: full-length receptor biogenesis” value in series [6] is listed as “abolishes”.

B5: α1D-adrenergic receptor (α1D-AR): tunicamycin 5 μg/mL (protein)
parent chain: MTFRDLLSVSFEGPRPDSSAGGSSAGGGGGSAGGAAPSEGPAVGGVPGGAGGGGGVVGAGSGEDNRSSAGEPGSAGAGGDVNGTAAVGGLVVSAQGVGVGVFLAAFILMAVAGNLLVILSVACNRHLQTVTNYFIVNLAVADLLLSATVLPFSATMEVLGFWAFGRAFCDVWAAVDVLCCTASILSLCTISVDRYVGVRHSLKYPAIMTERKAAAILALLWVVALVVSVGPLLGWKEPVPPDERFCGITEEAGYAVFSSVCSFYLPMAVIVVMYCRVYVVARSTTRSLEAGVKRERGKASEVVLRIHCRGAATGADGAHGMRSAKGHTFRSSLSVRLLKFSREKKAAKTLAIVVGVFVLCWFPFFFVLPLGSLFPQLKPSEGVFKVIFWLGYFNSCVNPLIYPCSSREFKRAFLRLLRCQCRRRRRRRPLWRVYGHHWRASTSGLRQDCAPSSGDAPPGAPLALTALPDPDPEPPGTPEMQAPVASRRKPPSAFREWRLLGPFRRPTTQLRAKVSSLSHKIRAGGAQRAEAACAQRSEVEAVSLGVPHEVAEGATCQAYELADYSNLRETDI
As for B5, the “other: full-length receptor biogenesis” value in series [7] is “changes”.
